Our source for the protein stability index values is the supplement of paper PMC9732359.

± gives the uncertainty stated by the source.

This series is described as follows: protein stability index of a GFP-peptide fusion (yeast GPS) (PSI 1-4); higher = more stable; sorted into four equal gates, so the index is relative within each strain. In outline:
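Tiled yeast protein peptides of 17 residues were each joined downstream of GFP, on plasmids that also express Cherry. The pooled library was maintained in yeast, and mid-log cultures in leucine-free medium were sorted into four equal gates on the GFP/Cherry ratio. Plasmids from every gate were amplified by PCR and sequenced on Illumina, with barcodes linking reads to strains. The protein stability index of a peptide is its gate-number-weighted read frequency summed over the gates.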

As for KKEELVEIAYHKCDELI [RPO31], the protein stability index is, setting by setting: (doa10∆) 3.13 ± 0.25; (pdr5∆) 2.96 ± 0.1; (ubr1∆) 3.14 ± 0.093.
For the sequence LRLRISRKRNEEEDAKN [RPL31A], the protein stability index came to 1.72 ± 0.17 (doa10∆), 2.39 ± 0.17 (pdr5∆), 3.35 ± 0.16 (san1∆) and 2.32 ± 0.14 (ubr1∆).
The like results for IVVAMTGKDCVAIACDL [PUP3] were, in that order, 1.38 ± 0.062, 1.47 ± 0.07, 2.08 ± 0.066 and 2.31 ± 0.046.
KRCMDDLNPLKTLNLFK [RPO31]: the protein stability index was found to be 2.98 ± 0.15 (doa10∆), 2.99 ± 0.074 (pdr5∆), 2.69 ± 0.12 (san1∆) and 2.92 ± 0.064 (ubr1∆).
Turning to DQVVVRGIDTLQKKVAS [RPB3], the protein stability index reads like this: (doa10∆) 2.39 ± 0.28; (pdr5∆) 3.29 ± 0.19; (san1∆) 2.68 ± 0.28.
Turning to NVIITGSTSLIEGMEQR [ARP7], the protein stability index stood at 1.75 ± 0.06 (doa10∆), 2.49 ± 0.075 (pdr5∆), 2.27 ± 0.065 (san1∆) and 2.13 ± 0.077 (ubr1∆).
LSRLSTASKIIVIDVDY [MED1]: the protein stability index reads like this: (doa10∆) 2.07 ± 0.058; (pdr5∆) 2.3 ± 0.067; (san1∆) 2.2 ± 0.051; (ubr1∆) 2.41 ± 0.074.
For the sequence STKIIMLLLNDSVENSS [SRB8], the protein stability index is, setting by setting: (doa10∆) 2.63 ± 0.074; (pdr5∆) 2.15 ± 0.07; (san1∆) 2.6 ± 0.077; (ubr1∆) 2.74 ± 0.088.
The like results for TRSHEYGRKSFRNNKND [REC8] were, in that order, 3.2 ± 0.11, 3.16 ± 0.067, 3.29 ± 0.051 and 3.3 ± 0.067.
The like results for GDDEATEIISTLSNGLI [BRR2] were, in that order, 3.32 ± 0.099, 3.1 ± 0.13, 3.42 ± 0.096 and 3.11 ± 0.21.
In the case of AQSSHIRAIRKVISEIL [RPS1A], the protein stability index reads like this: (doa10∆) 1.55 ± 0.017; (pdr5∆) 1.624 ± 0.015; (san1∆) 1.62 ± 0.031; (ubr1∆) 1.748 ± 0.015.
On the same counts, the results for NVDYYNVAHRIKEDIKK [SNF2] are 3.32 ± 0.065, 3.17 ± 0.066, 3.11 ± 0.04 and 3.02 ± 0.046.
ELTKNPNSNVELAGGNA [SMC1] registered a protein stability index (pdr5∆) of 3.01 ± 0.15, a protein stability index (san1∆) of 3.32 ± 0.086 and a protein stability index (ubr1∆) of 3.37 ± 0.12.
For the sequence MKQYSYLMDSKNVRTRI [RRI1], the protein stability index came out at 2.6 ± 0.26 (pdr5∆) and 2.94 ± 0.22 (ubr1∆).
In the case of NARMPGMPNMPGMPNMP [SRP54], the protein stability index was determined as 3.34 ± 0.11 (doa10∆), 3.25 ± 0.085 (pdr5∆), 3.09 ± 0.062 (san1∆) and 2.94 ± 0.071 (ubr1∆).
Consider FNGAQLKAVTVEAGMIA [RPT5], for which the protein stability index is 2.73 ± 0.28 (doa10∆), 2.62 ± 0.15 (pdr5∆) and 2.03 ± 0.19 (ubr1∆).
With SRPATTTRNGFMEAQGA [FAS2], the protein stability index was found to be 2.28 ± 0.049 (doa10∆), 2.18 ± 0.046 (pdr5∆), 2.48 ± 0.065 (san1∆) and 2.21 ± 0.039 (ubr1∆).
In the case of LVSSGDRFIELISDQLL [YML103C/NUP188], the protein stability index is, setting by setting: (doa10∆) 2.76 ± 0.099; (pdr5∆) 2.5 ± 0.079; (san1∆) 2.42 ± 0.057; (ubr1∆) 3 ± 0.06.
The like results for DNIDEKVVKAIRIYFTE [NUT1] were, in that order, 3.12 ± 0.092, 3 ± 0.061, 3.04 ± 0.048 and 2.39 ± 0.036.
The like results for NFTCNRKILNFKKDLVI [SWI1] were, in that order, 2.66 ± 0.081, 2.88 ± 0.063, 2.46 ± 0.1 and 2.87 ± 0.075.
On the same counts, the results for TLELSAQFRVPRYHSKN [SWP82] are 2.52 ± 0.067, 2.72 ± 0.056, 2.49 ± 0.065 and 2.74 ± 0.041.
In turn, HPFGHALVAGIERYPSK [RPL27B] displayed a protein stability index (doa10∆) of 2.43 ± 0.14, a protein stability index (pdr5∆) of 2.67 ± 0.1, a protein stability index (san1∆) of 2.24 ± 0.16 and a protein stability index (ubr1∆) of 2.46 ± 0.17.
Turning to SLRRQVKKLEIQQHARY [RPL43A], the protein stability index is, setting by setting: (doa10∆) 2.75 ± 0.11; (pdr5∆) 2.89 ± 0.1; (san1∆) 2.96 ± 0.077; (ubr1∆) 3.29 ± 0.09.
For the sequence VRLQRQKKILSIRLKVP [RPL8B], the protein stability index runs as follows: (doa10∆) 1.5 ± 0.032; (pdr5∆) 1.29 ± 0.032; (san1∆) 1.27 ± 0.055; (ubr1∆) 1.25 ± 0.025.
With LLDVVKGTEASNDIIDK [YDL116W/NUP84], the protein stability index came to 2.08 ± 0.19 (doa10∆), 2.51 ± 0.14 (pdr5∆), 1.92 ± 0.15 (san1∆) and 1.47 ± 0.041 (ubr1∆).
As to YVESDEDDTQIVTGNLV [IRR1], the protein stability index reads like this: (doa10∆) 3.47 ± 0.15; (pdr5∆) 3.47 ± 0.12; (san1∆) 3.08 ± 0.08; (ubr1∆) 3.26 ± 0.076.
